{"source": "patent US20100184613A1", "key": {"[1]": {"target": "antibody P1, specific for the PSA-derived 8-mer PET sequence EPAELTDA", "assay": "peptide competition ELISA"}, "[2]": {"target": "antibody P1, specific for the PSA-derived 8-mer PET sequence EPAELTDA", "assay": "peptide competition ELISA; soluble peptide competes with coated target peptide for P1"}, "[3]": {"target": "antibody C1, specific for the CRP-derived 8-mer PET sequence YEVQGEVF", "assay": "peptide competition ELISA; soluble peptide competes with coated target peptide for C1"}, "[4]": {"target": "antibody C1, specific for the CRP-derived 8-mer PET sequence YEVQGEVF", "assay": "peptide competition ELISA"}}, "note": "Where no end group is shown, it is not given here."}
{"binder": "DPTQLTDA", "note": "[nearest-neighbor 8-mer peptide DPTQLTDA]", "values": [{"measurement": "fold higher concentration without effect, against the antigen PET EPAELTDA", "setting": "[1]", "result": 25000, "unit": "fold"}, {"measurement": "IC50", "setting": "[2]", "result": "> 1000", "unit": "µM"}]}
{"binder": "YEVQGEVF", "note": "[CRP-derived 8-mer PET peptide YEVQGEVF]", "values": [{"measurement": "IC50", "setting": "[3]", "result": 1, "unit": "µM"}]}
{"binder": "EPVELTSA", "note": "[nearest-neighbor 8-mer peptide EPVELTSA]", "values": [{"measurement": "fold higher concentration without effect, against the antigen PET EPAELTDA", "setting": "[1]", "result": 25000, "unit": "fold"}, {"measurement": "IC50", "setting": "[2]", "result": "> 1000", "unit": "µM"}]}
{"binder": "YEVLGEEF", "note": "[nearest-neighbor 8-mer peptide YEVLGEEF]", "values": [{"measurement": "fold higher concentration without effect, against the antigen PET YEVQGEVF", "setting": "[4]", "result": "> 1000", "unit": "fold"}, {"measurement": "IC50", "setting": "[3]", "result": "> 1000", "unit": "µM"}]}
{"binder": "VEVNGEVF", "note": "[nearest-neighbor 8-mer peptide VEVNGEVF]", "values": [{"measurement": "fold higher concentration without effect, against the antigen PET YEVQGEVF", "setting": "[4]", "result": "> 1000", "unit": "fold"}, {"measurement": "IC50", "setting": "[3]", "result": "> 1000", "unit": "µM"}]}
{"binder": "EPAELTDA (not fully specified)", "note": "[PSA-derived 8-mer PET peptide EPAELTDA]", "values": [{"measurement": "IC50", "setting": "[2]", "result": 0.04, "unit": "µM"}]}
